The subject of the data set is MBP-(ZF)x6 (designed chimera), Q01844-5+P47974+O95218+O95218+P52756+P47974. The data set can be described thus: BLI. The settings on record: ITC: 50 mM Tris pH 7.5, 150 mM NaCl, 1 mM DTT, 0.1 mM ZnCl2, 25 °C, BLI: 50 mM Tris pH 7.5, 150 mM NaCl, 0.1% BSA, 0.02% Tween, 30 °C.

pKd: −log10 of the molar value.

MBP-(ZF)x6 (designed chimera), Q01844-5+P47974+O95218+O95218+P52756+P47974, sequence (P52756 whole entry, looked up, change not shown, chain 1 of 4): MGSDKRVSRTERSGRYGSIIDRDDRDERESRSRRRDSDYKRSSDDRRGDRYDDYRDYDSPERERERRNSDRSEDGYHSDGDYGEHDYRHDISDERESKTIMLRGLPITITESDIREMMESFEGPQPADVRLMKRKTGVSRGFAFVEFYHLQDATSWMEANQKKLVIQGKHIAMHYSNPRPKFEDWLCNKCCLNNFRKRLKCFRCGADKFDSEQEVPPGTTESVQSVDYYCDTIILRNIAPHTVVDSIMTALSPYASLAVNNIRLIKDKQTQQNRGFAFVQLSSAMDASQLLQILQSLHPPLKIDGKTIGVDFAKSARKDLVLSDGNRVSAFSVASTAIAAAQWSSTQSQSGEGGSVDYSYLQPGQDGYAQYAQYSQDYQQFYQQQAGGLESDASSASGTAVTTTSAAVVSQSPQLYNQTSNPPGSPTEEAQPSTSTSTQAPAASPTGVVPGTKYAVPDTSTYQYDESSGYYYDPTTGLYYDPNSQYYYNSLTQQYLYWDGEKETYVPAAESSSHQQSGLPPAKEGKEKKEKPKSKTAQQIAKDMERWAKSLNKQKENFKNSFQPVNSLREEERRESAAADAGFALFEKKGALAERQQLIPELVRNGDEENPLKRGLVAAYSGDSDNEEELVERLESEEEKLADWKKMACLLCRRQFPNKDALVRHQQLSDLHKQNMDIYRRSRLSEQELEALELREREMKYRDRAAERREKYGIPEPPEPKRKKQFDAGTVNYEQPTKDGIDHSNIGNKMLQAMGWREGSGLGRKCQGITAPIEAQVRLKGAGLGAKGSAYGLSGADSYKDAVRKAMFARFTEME
MBP-(ZF)x6 (designed chimera), Q01844-5+P47974+O95218+O95218+P52756+P47974, sequence (P47974 whole entry, looked up, change not shown, chain 2 of 4): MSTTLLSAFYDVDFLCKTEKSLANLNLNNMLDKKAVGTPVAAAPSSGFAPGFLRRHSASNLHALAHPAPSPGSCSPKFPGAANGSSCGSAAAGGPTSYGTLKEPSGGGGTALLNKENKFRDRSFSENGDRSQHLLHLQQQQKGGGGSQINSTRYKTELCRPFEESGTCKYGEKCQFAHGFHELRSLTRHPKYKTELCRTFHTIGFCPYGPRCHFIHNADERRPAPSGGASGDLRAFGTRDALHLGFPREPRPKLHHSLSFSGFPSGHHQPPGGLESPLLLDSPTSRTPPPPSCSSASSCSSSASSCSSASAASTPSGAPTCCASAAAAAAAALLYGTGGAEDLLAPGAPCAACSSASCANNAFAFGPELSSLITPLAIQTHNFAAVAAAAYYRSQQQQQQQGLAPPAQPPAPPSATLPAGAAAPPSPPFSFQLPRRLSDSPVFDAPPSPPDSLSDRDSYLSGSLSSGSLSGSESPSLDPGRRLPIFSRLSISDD
MBP-(ZF)x6 (designed chimera), Q01844-5+P47974+O95218+O95218+P52756+P47974, sequence (O95218 whole entry, looked up, change not shown, chain 3 of 4): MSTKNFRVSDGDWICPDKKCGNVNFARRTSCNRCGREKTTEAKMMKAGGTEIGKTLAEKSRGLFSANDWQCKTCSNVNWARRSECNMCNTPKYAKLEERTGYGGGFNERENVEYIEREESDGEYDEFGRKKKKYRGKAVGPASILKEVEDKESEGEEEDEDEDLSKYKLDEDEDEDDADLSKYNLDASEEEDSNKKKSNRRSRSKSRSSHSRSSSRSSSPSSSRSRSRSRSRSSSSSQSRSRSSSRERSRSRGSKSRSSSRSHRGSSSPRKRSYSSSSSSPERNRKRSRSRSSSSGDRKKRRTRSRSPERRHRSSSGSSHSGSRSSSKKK
MBP-(ZF)x6 (designed chimera), Q01844-5+P47974+O95218+O95218+P52756+P47974, sequence (Q01844 whole entry, looked up, change not shown, chain 4 of 4): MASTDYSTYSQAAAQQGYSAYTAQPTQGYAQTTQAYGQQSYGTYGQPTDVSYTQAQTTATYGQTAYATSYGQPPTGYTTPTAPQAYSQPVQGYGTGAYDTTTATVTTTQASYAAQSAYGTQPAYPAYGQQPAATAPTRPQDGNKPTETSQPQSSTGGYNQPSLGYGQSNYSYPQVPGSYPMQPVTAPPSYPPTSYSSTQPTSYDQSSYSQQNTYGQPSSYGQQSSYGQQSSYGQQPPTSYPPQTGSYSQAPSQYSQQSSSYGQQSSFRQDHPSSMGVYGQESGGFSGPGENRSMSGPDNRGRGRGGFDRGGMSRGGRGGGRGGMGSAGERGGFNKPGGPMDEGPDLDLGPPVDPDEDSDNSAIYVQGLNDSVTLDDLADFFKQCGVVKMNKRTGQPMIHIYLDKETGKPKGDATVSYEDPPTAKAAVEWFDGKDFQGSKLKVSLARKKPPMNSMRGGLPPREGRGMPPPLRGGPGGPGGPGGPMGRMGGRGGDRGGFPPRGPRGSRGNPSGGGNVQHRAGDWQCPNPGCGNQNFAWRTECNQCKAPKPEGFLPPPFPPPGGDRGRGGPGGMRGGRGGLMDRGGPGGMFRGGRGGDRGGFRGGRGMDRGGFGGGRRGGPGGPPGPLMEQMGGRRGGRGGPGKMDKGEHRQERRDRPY

“AAAGGUUAUUGGUGCCGGGUAUUAAA [(ZF)x6 target]” had a pKd of 7.62. In the case of “AAAUAUUGGUGGGUAUUGCCGGUAAA [PT (permuted target)]”, the pKd is 6.65.

The values are drawn from article PMC6384913.
